Laboratory results from US6372211B1, “Methods and compositions for controlling insects” (Monsanto Technolgy LLC, priority 1997, dated 2002).

Experiments:
T. viride lysine oxidase = conditions: read-out: Km for lysine, reported, Kusakabe et al., 1980; cited from earlier work
[1] = system: Trichoderma sp. F22844 L-lysine oxidase (Mr 56,000 protein, E.C. 1.4.3.14), native; proprotein SEQ ID NO:46; conditions: read-out: Km for lysine; lysine oxidase from F22844
southern corn rootworm = assay: Southern corn rootworm artificial diet bioassay; type: in vivo
Protocol: These proteins were then purified by sizing and ion exchange chromatography. […] In both cases, no bioactivity was detected when the proteins were assayed individually but significant stunting was seen when the proteins were combined in assay.
Native-PAGE studies were effective in confirming that the Mr 56,000 and Mr 50,000 proteins were responsible for the southern corn rootworm bioactivity of F22844. The chromatographically purified Mr 56,000 and Mr 50,000 proteins were further purified by native PAGE. […] A sample containing a combination of the two proteins at concentrations of 9.7 μg/mL of Mr 56,000 and 2.5 μg/mL of Mr 50,000 yielded 89% stunting of corn rootworm larvae (Table 3). […]
(§1) These leads were not characterized further. […] Lysine oxidase from Trichoderma viride is available commercially from Sigma (St. Louis, Mo.). The enzyme was purified to a single band from this preparation and bioassayed against southern corn rootworm. Bioassays were conducted to compare the concentration responses of the T. viride lysine oxidase (±Mr 50,000 protein from F22844) with the lysine oxidase purified from F22844. The bioactivity of the T viride lysine oxidase agrees very well with the bioactivity of lysine oxidase from F22844 when bioassayed in the presence of tedanalactam synthase from F22844 (Table 10). Very similar stunting levels are seen at equivalent doses (compare Table 10 to Table 7). In addition, no bioactivity is seen with either lysine oxidase in the absence of tedanalactam synthase from F22844.
An NcoI-HindIII fragment containing the full length tedanalactam synthase cDNA gene (SEQ ID NO:40) from pMON25424 was interested into pMON6235, an E. coli expression vector containing an arabinose inducible promoter and G10 leader sequence to produce pMON25428 (FIG. 12). […] The relative migration of the expressed protein on SDS-PAGE was identical to the F22844 purified tedanalactam synthase. The recombinant tedanalactam synthase was purified in a 5 step procedure from E. coli expressing the tedanalactam synthase gene. Lysine oxidase was purified from a commercial preparation of T. viride lysine oxidase. Both the lysine oxidase and tedanalactam synthase were >95% pure by SDS-PAGE.

[2] = Lysine oxidase enzymatic assay of enzyme preparations; type: biochemical; conditions: purified lysine oxidase
Protocol: F22844 was identified taxonomically as a Trichoderma species.
(§2) Yeast (Saccharomyces cerevisiae) transformed with pMON25030 were grown in the presence of galactose and shown to produce enzymatically active lysine oxidase. Yeast transformed with pMON25030 had soluble lysine oxidase activity in both disrupted cell pellets and cell free culture media. […] Lysine oxidase from the yeast culture media was subsequently purified and shown to have bioactivity against corn rootworm when combined with tedanalactam synthase.

corn rootworm = assay: Corn rootworm bioassay (species not stated); type: in vivo, Diabrotica spp.; conditions: Table 11, yeast recombinant lysine oxidase 14 ppm, F22844 Mr 50,000 10 ppm, alone or combined
Protocol: as §1, §2

Molecule: NCCCC[C@H](N)C(=O)O [lysine]
- Km (T. viride lysine oxidase): 40 µM
- Km [1]: 26 µM

B1: L-lysine oxidase (protein)
chain: MDNVDFAESVRTRWARRLIREKVAKELNILTERLGEVPGIPPPNEGRFLGGGYSHDNLPSDPLYSSIKPALLKEAPRAEEELPPRKVCIVGAGVSGLYIAMILDDLKIPNLTYDIFESSSRTGGRLYTHHFTDAKHDYYDIGAMRYPDIPSMKRTFNLFKRTGMPLIKYYLDGENTPQLYNNHFFAKGVSDPYMVSVANGGTVPDDVVDSVGEKLQQAFGYYKEKLAEDFDKGFDELMLVDDMTTREYLKRGGPKGEAPKYDFFAIQWMETQNTGTNLFDQAFSESVIDSFDFDNPTKPEWYCIEGGTSLLVDAMKETLVHKVQNNKRVDAISIDLDAPDDGNMSVRIGGKDHSGYSTVFNTTALGCLDRMDLRGLNLHPTQADAIRCLHYDNSTKVALKFSYPWWIKDCGITCGGAASTDLPLRTCVYPSYNLDDTGEAVLLASYTWSQDATRIGSLVKDAPPQPPKEDELVELILQNLARLHAEHMTYEKIKEAYTGVYHAYCWANDPNVGGAFALFGPGQFSNLYPYLMRPAAGGKFHIVGEASSVHHAWIIGSLESAYTAVYQFLYKYKMWDYLRLLLERWQYGLQELETGKHGTAHLQFILGSLPKEYQVKI
notes: Mr 56,000 protein purified from Trichoderma sp; F22844 culture filtrate, identified as L-lysine oxidase
- % Stunting (southern corn rootworm; Table 2a, Mr 56,000 10 μg/mL, Mr 50,000 1.5 μg/mL, alone or combined, NSS = not statistically significant): NSS
- % Stunting (southern corn rootworm; Table 3, native PAGE purified, Mr 56,000 9.7 μg/mL, Mr 50,000 2.5 μg/mL, alone or combined): NSS
- Mean larval wt. (mg) (+SEM) (southern corn rootworm; Table 12, SCRW neonate, T. viride lysine oxidase 10 ppm, E. coli produced Mr 50,000 18 ppm, alone or combined, buffer 0.68, 0.57): 0.48 ± 0.04 mg
- # of survivors (southern corn rootworm; Table 12, SCRW neonate, T. viride lysine oxidase 10 ppm, E. coli produced Mr 50,000 18 ppm, alone or combined, buffer 51, 52): 46
- % Stunting (southern corn rootworm; second table headed TABLE 2a, Mr 56,000 10 μg/mL, Mr 50,000 1.5 μg/mL, NSS = not statistically significant): NSS
- specific activity [2]: 37 U/mg protein
- # of survivors (corn rootworm; 16 wells/sample, buffer 61, 45): 38
- Mean larval wt. (mg) (±SEM) (corn rootworm; buffer 0.94, 0.84): 0.76 ± 0.06 mg
